# Source: US8329882B2, “Genetic control of mammalian cells with synthetic RNA regulatory systems” (California Institute of Technology, priority 2009, dated 2012)
# “Also recorded” adds a separate entry of the source.
# B1: L2bulge9: theophylline-responsive ribozyme switch, SEQ ID NO: 28 (nucleic acid)
# chain: CTCGAGGCGATCGCAAACAAACAAAGCTGTCACCGGATGTGCTTTCCGGTCTGATGAGTCCGTTGTCCAATACCAGCATCGTCTTGATGCCCTTGGCAGTGGATGGGGACGGAGGACGAAACAGCAAAAAGAAAAATAAAAATTTTTTTTTTAATTAATCTTGGGCCC
# modifications: L2bulge9
# B2: L2bulge18tc: tetracycline-responsive ribozyme switch, SEQ ID NO: 29 (nucleic acid)
# chain: CTCGAGGCGATCGCAAACAAACAAAGCTGTCACCGGATGTGCTTTCCGGTCTGATGAGTCCGTTGTCCAAAACATACCAGATTTCGATCTGGAGAGGTGAAGAATTCGACCACCTGGACGAGGACGGAGGACGAAACAGCAAAAAGAAAAATAAAAATTAATTAATCTTGGGCCC
# modifications: L2bulge18tc
# B3: inactive ribozyme: inactive, scrambled hammerhead ribozyme lacking an aptamer, SEQ ID NO: 30; cells expressing it serve as positive control (nucleic acid)
# chain: CTCGAGGCGATCGCAAACAAACAAAGCTGTCACCGGATGTGCTTTCCGGTACGTGAGGTCCGTGAGGACAGAACAGCAAAAAGAAAAATAAAAATTTTTTTTTTAATTAATCTTGGGCCC
# How the values were obtained:
# [1] = system: CTLL-2 cells; conditions: 100 U/ml IL-2 every 48 hours; cell count every 24 hours
# Protocol: Cells were cultured in media containing the indicated concentration of (a) theophylline and (b) tetracycline.
# In the experiment shown in FIG. 19, 100 U/ml of IL-2 was fed to all cultures every 48 hours, and cell count was obtained every 24 hours by flow cytometry.
# [2] = system: JAK-STAT pathway; assay: Western blot analysis of phosphorylated STAT5 levels; assay type: cell-based, mouse; conditions: CffLuc cell line lacking the ribozyme switch system; 500 μM theophylline
# Protocol: Additional assays on a clonal cell line harboring three copies of L2bulge9 (clone 1264-48) were performed to verify the mechanism of growth regulation and examine the dynamic behavior of the regulatory system to variations in theophylline availability. Cell cultures were grown for one week in the presence of 500 μM theophylline and continued for a second week in the absence of theophylline. Theophylline was reintroduced for another four days at the end of the study. […] CD19 levels returned to basal levels within 48 hours of theophylline removal from the culture. The theophylline-responsive increase in CD19 expression was repeated upon reintroduction of theophylline to culture media. IL-15 expression patterns were verified at the transcript level through quantitative RT-PCR (Example 21, FIG. 8). […]
# Lysate samples were thawed on ice and a standard Bradford assay using Protein Assay Dye (Bio-Rad) was performed with a BSA standard to determine protein concentrations. […] Membranes stained for […] and p-STAT5 were washed 4 times with 100 ml TTBS and once with 100 ml TBS before fluorescent images were acquired and quantified with the Odyssey Infrared Imaging System (Li-Cor). Integrated band intensity was calculated with the Odyssey system using blank gel areas surrounding each band for background subtraction. […]
# [3] = system: CTLL-2 cells; assay: Transient transfection in CTLL-2 cells, viability and fluorescence by flow cytometry; assay type: cell-based, mouse
# [4] = system: primary human TCM cells; assay: TCM cell apoptosis time-course study (annexin V / SYTOX AAD / CD19 staining); assay type: cell-based; conditions: 500 μM theophylline, five days, compared to the inactive ribozyme control
# Protocol: (§1) Since short production timeline and streamlined processing may be important in clinical applications, characterization studies of TCM cells were performed on bulk transduced, unsorted populations to examine the robustness of the regulatory system in the scenario in which no population refinement was performed. Transduced cells were cultured in the presence and absence of 500 μM theophylline for five days, with daily monitoring of CD19 levels and cell viability by staining with CD19 antibody, annexin V, and SYTOX AAD dead cell stain. […] TCM cells stably expressing the cd19-t2a-il15-L2bulge9(3×) construct were cultured in the presence and absence of 500 μM theophylline. […] Values reported represent mean±s.d. from triplicate samples.
# On day 12 post stimulation, each cell line was washed twice with HBSS and used to seed six 25-ml cultures at 0.45×10^6 cells/ml. […] Fluorescence data were obtained using a Quanta Cell Lab Flow Cytometer with both a 488-nm laser and an UV arc lamp. Pacific Blue, PE, and SYTOX AAD were detected through 465/30-nm band pass, 575/30-nm band pass, and 610-nm long pass filters, respectively, Only SYTOX AAD-cells were included in data analyses. The population of live CD19+ cells was determined by gating for annexin V−/PE+ cells and the population of apoptotic CD19+ cells was determined by gating for annexin V+/PE+ cells.
# [5] = system: primary human TCM cells; assay: TCM cell CD19 expression time-course study; assay type: cell-based; conditions: 500 μM theophylline, five days; compared to the inactive ribozyme control; three copies of switch
# Protocol: as §1
# On day 12 post stimulation, each cell line was used to seed four 25-ml cultures at 0.2×10^6 cells/ml. 500 μM theophylline was added to 2 flasks of each cell line, and no IL-2 or IL-15 was fed to any flask. Two aliquots from each culture were sampled every 24 hours for staining with PE-conjugated CD19 antibody (Beckman Coulter; Fullerton, Calif.). Fluorescence data were obtained with a Quanta Cell Lab Flow Cytometer using a 488-nm laser and a 575/30-nm band-pass filter.
# [6] = system: T-cell proliferation; assay: In vivo T-cell proliferation study with biophotonic imaging of luciferase signal flux; set-up: species or system NOD/scid-IL2(ko) mice
# Protocol: To verify in vivo functionality of the T-cell proliferation regulatory system, we examined several clonal cell lines for theophylline-dependent growth in mice over time. Select clones were encased in a hydrogel matrix that contained either 0 μM or 500 μM theophylline and injected into the flanks of NOD/SCID-γc^−/− mice. […] Flux measurements over a 9-day period indicate an average of 40% increase in the growth rate of clone 1264-48 in the presence of […] (n1=4, n2=6, P=0.038 by Mann-Whitney U test).
# Cells were harvested by centrifugation at 1200 rpm at 4° C. for 10 min, washed twice with PBS, resuspended in PBS at a concentration of 2×10^6 cells/ml, and split into two 50 μl aliquots. […] In vivo growth of the injected cells was monitored by biophotonic imaging. […]
# Animals received intraperitoneal (i.p.) injections of 4.29 mg per mouse of freshly prepared luciferin substrate (Caliper Life Sciences; Hopkinton, Mass.) suspended in 150 μl of PBS. […] Luciferase activity was analyzed through Living Image Software 3.1 from Xenogen to quantify tumor region flux (photons per second).
# Statistical analysis was performed on growth rate data using the Mann-Whitney U test to calculate two-tailed P values. The doubling time of injected cells was calculated based on the total luciferase signal flux data collected over the course of each in vivo study. […]
# [7] = system: CTLL-2 cells; assay: In vitro growth assay for stable CTLL-2 cell lines; assay type: cell-based, mouse; conditions: 500 μM theophylline, without exogenous IL-2
# Protocol: Growth behavior of individual clones was characterized by culturing under various theophylline concentrations. […] In the experiment shown in FIG. 7, the cell lines were cultured at various theophylline concentrations, and cell growth was monitored by counting viable cells. Clones indicated as 1261-xx stably expressed cd19-tk-il15-L2bulge9(1x). Clone 1264-xx stably expressed cd19-tk-il15-L2bulge9(3×). Growth behaviors differ from clone to clone, as would be expected from non-site-specific integration of the transgene into the host chromosomes. Theophylline-responsive increase in cell growth is evident in fifteen of the sixteen tested clones, and the growth elevation is statistically significant for the sample set (P=0.0150, 0.0011, 0.0013 for 100 μM, 250 μM, and 400 μM, respectively, by Whitney-Mann U test).
# CffLuc-pIL15 clones were cultured under regular conditions (RPMI 1640 media supplemented with 100 U/ml IL-2 every 48 hours, 0.2 mg/ml zeocin, no theophylline), washed twice with HBSS, and split into 5 identical aliquots in 6-well plates at approximately 0.01×10^6 cells/ml (4 ml/well). […] Cell density was calculated by dividing the number of detected live cells by the volume analyzed on the flow cytometer. […]
molecule,measurement,setting,value
Cn1c(=O)c2[nH]cnc2n(C)c1=O [theophylline],toxicity to CTLL-2 cells,[1],some toxicity
same,nonspecific activation of JAK-STAT pathway,[2],did not nonspecifically activate the JAK-STAT pathway
CN(C)[C@@H]1C(O)=C(C(N)=O)C(=O)[C@@]2(O)C(O)=C3C(=O)c4c(O)cccc4[C@@](C)(O)[C@H]3C[C@@H]12 [tetracycline],toxicity to CTLL-2 cells,[1],some toxicity
B1,switch control over cell viability and proliferation,"[3]; cd19-tk-t2a-il15 transgene, theophylline",ON switch control over cell viability and proliferation
same,basal knockdown (viability),"[3]; three and four copies of switch, egfp-t2a-il2, viability comparable to No IL-2 Control and sTRSV Ribozyme",Stringent knockdown
same,reduction in the apoptotic cell population,[4]; apoptotic CD19+,up to 54%
same,increase in the live cell population,[4]; live CD19+,up to 24%
same,increase in CD19 expression levels,[5],up to 15%
B2,switch activity (fluorescence),"[3]; tetracycline input, single- and multiple-copy switch systems",tetracycline-responsive ON switch activity
B3,change in in vivo growth rate in response to theophylline addition,"[6]; 500 μM theophylline vs none, 9-day period",did not show statistically significant changes; also recorded: no statistically significant difference
same,in vivo T-cell proliferation,"[6]; regardless of theophylline availability (0 or 500 μM), 14-day study",Uncontrolled T-cell proliferation
same,growth rate in the presence of theophylline,[7],decreased growth rate
